According to the RNAGym collection of RNA variant scans (doi:10.1021/acssynbio.7b00057):

B1: Pistol ribozyme (parent)
chain: GGGUCGUUGUUCCAUAAUCGCGUGGAUAUGGCACGCAAGUUUCUACCGGGCACCGUAAAUGUCCGACUGGAGCCGUUCGGGCGGCUAUAAACAGACCUCAGGCCCGAAGCGUGGCGGCACCUGCCGCCGGUGGUAAAAAAGAUCGGAAGAGCACACGUCU

Variants of: B1
Experiment: aptazyme ON/OFF ratio, guanine; higher = stronger switching; co-transcriptional cleavage with and without guanine

Row | Variant | aptazyme ON/OFF ratio
1 | U7A U8C G9C U11C | 1
2 | U7A U8C G9C U11A | 1.11
3 | U7A U8C G9C U10A U11G C12A C13A | 1.11
4 | U7A U8C G9C U10A U11G C12A C13U | 1.11
5 | U7A U8C G9C U10A U11G C12A C13G | 1.12
6 | U7A U8C G9U U10A C13A | 1.18
7 | U7A U8C G9U U10A C13U | 1.15
8 | U7A U8C G9U U10A C13G | 1.08
9 | U7A U8C G9C U10G U11A C12A C13A | 1.03
10 | U7A U8C G9C U10G U11A C12A C13U | 1.06
11 | U7A U8C G9C U10G U11A C12A C13G | 1.16
12 | U7A U8C G9C U11A C12U C13G | 1.04
13 | U7A U8C G9C U11A C12U C13U | 1.07
14 | U7A U8C G9C U11A C12U C13A | 1.09
15 | U7A U8C G9C U10G U11C C12G | 1.21
16 | U7A U8C G9C U10G U11C C12U | 1.09
17 | U7A U8C G9C U10G U11C C12A | 1.1
18 | U7A U8C G9C U10C U11G C12A C13U | 1.11
19 | U7A U8C G9C U10C U11G C12A C13A | 1.18
20 | U7A U8C G9C U10C U11G C12A C13G | 1.07
21 | U7A U8C G9U U10C C12U | 1.08

Row | Variant | aptazyme ON/OFF ratio
22 | U7A U8C G9U U10C C12G | 1.57
23 | U7A U8C G9U U10C C12A | 1.27
24 | U7A U8C G9U U10C U11C C12U C13A | 1.05
25 | U7A U8C G9U U10A U11A C12U C13G | 1.12
26 | U7A U8C G9U U10A U11A C12U C13U | 1.16
27 | U7A U8C G9U U10A U11A C12U C13A | 1.21
28 | U7A U8C G9U U10A U11G C12A C13G | 1.2
29 | U7A U8C G9U U10A U11G C12A C13U | 1.1
30 | U7A U8C G9U U10A U11G C12A C13A | 1.08
31 | U7A U8C G9C U10A U11G C12G C13U | 1.14
32 | U7A U8C G9C U10A U11G C12G C13A | 1.08
33 | U7A U8C G9C U10A U11G C12G C13G | 1.13
34 | U7A U8C G9U U10A C12U C13G | 1.17
35 | U7A U8C G9U U10A C12U C13U | 1.42
36 | U7A U8C G9U U10A C12U C13A | 1.29
37 | U7A U8C G9C U10G U11C C12U C13G | 1.16
38 | U7A U8C G9C U10G U11C C12U C13U | 1.11
39 | U7A U8C G9C U10G U11C C12U C13A | 1.12
40 | U7A U8C G9U U10A U11G C12U | 1.35
41 | U7A U8C G9U U10A U11G C12G | 1.12
42 | U7A U8C G9U U10A U11G C12A | 1.07

Row | Variant | aptazyme ON/OFF ratio
43 | U7A U8C G9C U10A U11G C13A | 1.1
44 | U7A U8C G9C U10A U11G C13G | 1.12
45 | U7A U8C G9C U10A U11G C13U | 1.09
46 | U7A U8C G9C U10G U11A C12G C13A | 1.02
47 | U7A U8C G9C U10G U11A C12G C13U | 1.08
48 | U7A U8C G9C U10G U11A C12G C13G | 1.17
49 | U7A U8C G9U U10C C12U C13U | 1.16
50 | U7A U8C G9U U10C C12U C13G | 1.09
51 | U7A U8C G9U U10C C12U C13A | 1.19
52 | U7A U8C G9U U10A U11C C12A C13U | 1.23
53 | U7A U8C G9U U10A U11C C12A C13A | 1.17
54 | U7A U8C G9U U10A U11C C12A C13G | 1.14
55 | U7A U8C G9C U10G U11C | 1.1
56 | U7A U8C G9C U10G U11G | 1.06
57 | U7A U8C G9C U10G U11A | 1.04
58 | U7A U8C G9C U10C C12A C13U | 0.999
59 | U7A U8C G9C U10C C12A C13G | 1.13
60 | U7A U8C G9C U10C C12A C13A | 1.03
61 | U7A U8C G9C U10C U11C | 0.989
62 | U7A U8C G9C U10C U11A | 1.03
63 | U7A U8C G9C U10C U11G | 1.03

Row | Variant | aptazyme ON/OFF ratio
64 | U7A U8C G9U U10A U11A C13G | 1.08
65 | U7A U8C G9U U10A U11A C13A | 1.17
66 | U7A U8C G9U U10A U11A C13U | 1.16
67 | U7A U8C G9C U10A U11A C13G | 1.06
68 | U7A U8C G9C U10A U11A C13A | 1.07
69 | U7A U8C G9C U10A U11A C13U | 1.13
70 | U7A U8C G9C U11G C12U C13U | 1.27
71 | U7A U8C G9C U11G C12U C13G | 1.19
72 | U7A U8C G9C U11G C12U C13A | 1.17
73 | U7A U8C G9C U10A U11C C12U C13U | 1.22
74 | U7A U8C G9C U10A U11C C12U C13G | 1.26
75 | U7A U8C G9C U10A U11C C12U C13A | 1.05
76 | U7A U8C G9U U10A U11G C12G C13U | 1.18
77 | U7A U8C G9U U10A U11G C12G C13G | 1.26
78 | U7A U8C G9U U10A U11G C12G C13A | 1.2
79 | U7A U8C G9C U10C U11G C12G C13U | 1.08
80 | U7A U8C G9C U10C U11G C12G C13A | 1.12
81 | U7A U8C G9C U10C U11G C12G C13G | 1.08
82 | U7A U8C G9U U10C C13G | 1.06
83 | U7A U8C G9U U10C C13A | 1.09
84 | U7A U8C G9U U10C C13U | 1.19
